T1: ADAMTS4 (human, UniProt O75173 213-685, limits assumed)
T1 sequence (looked up): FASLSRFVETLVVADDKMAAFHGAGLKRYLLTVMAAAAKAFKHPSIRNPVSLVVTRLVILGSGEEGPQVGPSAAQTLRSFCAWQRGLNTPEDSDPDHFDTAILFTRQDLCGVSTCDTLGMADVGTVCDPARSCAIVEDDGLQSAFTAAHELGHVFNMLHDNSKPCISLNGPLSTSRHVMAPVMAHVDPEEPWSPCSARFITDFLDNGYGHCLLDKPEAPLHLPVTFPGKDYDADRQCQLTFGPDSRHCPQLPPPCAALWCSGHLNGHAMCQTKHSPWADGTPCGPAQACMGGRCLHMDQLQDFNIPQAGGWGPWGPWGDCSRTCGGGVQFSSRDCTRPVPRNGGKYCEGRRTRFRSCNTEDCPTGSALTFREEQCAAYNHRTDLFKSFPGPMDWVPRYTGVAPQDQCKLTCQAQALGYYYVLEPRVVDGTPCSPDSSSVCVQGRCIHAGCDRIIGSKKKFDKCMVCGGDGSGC

T2: ADAMTS5 (human, UniProt Q9UNA0 262-622, limits assumed)
T2 sequence (looked up): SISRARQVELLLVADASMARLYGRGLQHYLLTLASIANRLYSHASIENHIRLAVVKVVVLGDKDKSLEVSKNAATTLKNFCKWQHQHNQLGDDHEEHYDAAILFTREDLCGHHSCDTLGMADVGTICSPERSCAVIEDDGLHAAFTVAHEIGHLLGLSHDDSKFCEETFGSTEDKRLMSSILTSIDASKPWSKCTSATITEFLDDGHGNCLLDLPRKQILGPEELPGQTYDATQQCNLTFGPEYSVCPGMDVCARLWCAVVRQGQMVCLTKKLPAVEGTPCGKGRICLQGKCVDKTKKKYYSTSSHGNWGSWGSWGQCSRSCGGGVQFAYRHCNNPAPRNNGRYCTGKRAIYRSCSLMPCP

T3: MMP1 (human, UniProt P03956 100-469, limits assumed)
T3 sequence (looked up): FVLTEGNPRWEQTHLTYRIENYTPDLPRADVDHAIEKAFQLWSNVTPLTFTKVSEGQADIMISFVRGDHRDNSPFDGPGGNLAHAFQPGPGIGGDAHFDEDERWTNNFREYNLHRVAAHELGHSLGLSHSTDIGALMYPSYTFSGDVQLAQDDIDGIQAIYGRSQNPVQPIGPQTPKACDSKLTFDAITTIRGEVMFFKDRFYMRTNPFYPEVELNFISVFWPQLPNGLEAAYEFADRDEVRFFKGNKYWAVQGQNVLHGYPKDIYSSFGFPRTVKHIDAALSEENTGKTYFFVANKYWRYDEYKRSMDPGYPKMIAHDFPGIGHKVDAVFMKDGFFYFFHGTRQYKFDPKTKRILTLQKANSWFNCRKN

T4: MMP2 (human, UniProt P08253 110-660, limits assumed)
T4 sequence (looked up): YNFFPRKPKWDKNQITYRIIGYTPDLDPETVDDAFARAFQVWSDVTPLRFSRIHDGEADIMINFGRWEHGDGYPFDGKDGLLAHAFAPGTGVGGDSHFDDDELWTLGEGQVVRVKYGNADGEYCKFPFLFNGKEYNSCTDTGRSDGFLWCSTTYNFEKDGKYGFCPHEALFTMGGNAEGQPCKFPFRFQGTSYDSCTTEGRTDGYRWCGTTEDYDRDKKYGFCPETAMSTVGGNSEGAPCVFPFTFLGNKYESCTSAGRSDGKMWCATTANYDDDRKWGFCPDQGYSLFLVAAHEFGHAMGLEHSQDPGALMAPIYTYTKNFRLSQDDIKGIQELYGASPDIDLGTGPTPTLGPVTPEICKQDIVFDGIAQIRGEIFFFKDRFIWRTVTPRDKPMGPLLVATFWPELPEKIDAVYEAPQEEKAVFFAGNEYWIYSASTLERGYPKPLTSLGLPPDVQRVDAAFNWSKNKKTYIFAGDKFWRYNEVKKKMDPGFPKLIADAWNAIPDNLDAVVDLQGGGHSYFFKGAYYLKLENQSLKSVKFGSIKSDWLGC

T5: Cathepsin G (UniProt P08311 21-244)
T5 sequence (looked up): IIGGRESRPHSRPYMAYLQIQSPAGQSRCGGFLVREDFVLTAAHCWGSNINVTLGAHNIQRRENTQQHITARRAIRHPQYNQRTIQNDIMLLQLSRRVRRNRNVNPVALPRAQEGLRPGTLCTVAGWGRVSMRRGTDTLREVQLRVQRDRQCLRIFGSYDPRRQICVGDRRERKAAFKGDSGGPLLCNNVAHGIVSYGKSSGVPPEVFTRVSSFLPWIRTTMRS

B1: Variant A2M, bait region SEQ ID NO 90 (other)
chain: SVSGKPQYMVLVPSLLHTETTEKGCVLLSYLNETVTVSASLESVRGNRSLFTDLEAENDVLHCVAFAVPKSSSNEEVMFLTVQVKGPTQEFKKRTTVMVKNEDSLVFVQTDKSIYKPGQTVKFRVVSMDENFHPLNELIPLVYIQDPKGNRIAQWQSFQLEGGLKQFSFPLSSEPFQGSYKVVVQKKSGGRTEHPFTVEEFVLPKFEVQVTVPKIITILEEEMNVSVCGLYTYGKPVPGHVTVSICRKYSDASDCHGEDSQAFCEKFSGQLNSHGCFYQQVKTKVFQLKRKEYEMKLHTEAQIQEEGTVVELTGRQSSEITRTITKLSFVKVDSHFRQGIPFFGQVRLVDGKGVPIPNKVIFIRGNEANYYSNATTDEHGLVQFSINTTNVMGTSLTVRVNYKDRSPCYGYQWVSEEHEEAHHTAYLVFSPSKSFVHLEPMSHELPCGHTQTVQAHYILNGGTLLGLKKLSFYYLIMAKGGIVRTGTHGLLVKQEDMKGHFSISIPVKSDIAPVARLLIYAVLPTGDVIGDSAKYDVENCLANKVDLSFSPSQSLPASHAHLRVTAAPQSVCALRAVDQSVLLMKPDAELSASSVYNLLPEKDLTGFPGPLNDQDDEDCINRHNVYINGITYTPVSSTNEKDMYSFLEDMGLKAFTNSKIRKPKMCPQLEQYEMHGPEGLRVGSELEGRGSFYESDVMGRGHARLVHVEEPHTKLLRKYFPETWIWDLVVVNSAGVAEVGVTVPDTITEWKAGAFCLSEDAGLGISSTASLRAFQPFFVELTMPYSVIRGEAFTLKATVLNYLPKCIRVSVQLEASPAFLAVPVEKEQAPHCICANGRQTVSWAVTPKSLGNVNFTVSAEALESQELCGTEVPSVPEHGRKDTVIKPLLVEPEGLEKETTFNSLLCPSGGEVSEELSLKLPPNVVEESARASVSVLGDILGSAMQNTQNLLQMPYGCGEQNMVLFAPNIYVLDYLNETQQLTPEIKSKAIGYLNTGYQRQLNYKHYDGSYSTFGERYGRNQGNTWLTAFVLKTFAQARAYIFIDEAHITQALIWLSQRQKDNGCFRSSGSLLNNAIKGGVEDEVTLSAYITIALLEIPLTVTHPVVRNALFCLESAWKTAQEGDHGSHVYTKALLAYAFALAGNQDKRKEVLKSLNEEAVKKDNSVHWERPQKPKAPVGHFYEPQAPSAEVEMTSYVLLAYLTAQPAPTSEDLTSATNIVKWITKQQNAQGGFSSTQDTVVALHALSKYGAATFTRTGKAAQVTIQSSGTFSSKFQVDNNNRLLLQQVSLPELPGEYSMKVTGEGCVYLQTSLKYNILPEKEEFPFALGVQTLPQTCDEPKAHTSFQISLSVSYTGSRSASNMAIVDVKMVSGFIPLKPTVKMLERSNHVSRTEVSSNHVLIYLDKVSNQTLSLFFTVLQDVPVRDLKPAIVKVYDYYETDEFAIAEYNAPCSKDLGNADYKDDDDKGASHHHHHH
B2: Variant A2M, bait region SEQ ID NO 126 (other)
chain: SVSGKPQYMVLVPSLLHTETTEKGCVLLSYLNETVTVSASLESVRGNRSLFTDLEAENDVLHCVAFAVPKSSSNEEVMFLTVQVKGPTQEFKKRTTVMVKNEDSLVFVQTDKSIYKPGQTVKFRVVSMDENFHPLNELIPLVYIQDPKGNRIAQWQSFQLEGGLKQFSFPLSSEPFQGSYKVVVQKKSGGRTEHPFTVEEFVLPKFEVQVTVPKIITILEEEMNVSVCGLYTYGKPVPGHVTVSICRKYSDASDCHGEDSQAFCEKFSGQLNSHGCFYQQVKTKVFQLKRKEYEMKLHTEAQIQEEGTVVELTGRQSSEITRTITKLSFVKVDSHFRQGIPFFGQVRLVDGKGVPIPNKVIFIRGNEANYYSNATTDEHGLVQFSINTTNVMGTSLTVRVNYKDRSPCYGYQWVSEEHEEAHHTAYLVFSPSKSFVHLEPMSHELPCGHTQTVQAHYILNGGTLLGLKKLSFYYLIMAKGGIVRTGTHGLLVKQEDMKGHFSISIPVKSDIAPVARLLIYAVLPTGDVIGDSAKYDVENCLANKVDLSFSPSQSLPASHAHLRVTAAPQSVCALRAVDQSVLLMKPDAELSASSVYNLLPEKDLTGFPGPLNDQDDEDCINRHNVYINGITYTPVSSTNEKDMYSFLEDMGLKAFTNSKIRKPKMCPQLEQYEMHGPEGEGEGEGIPENFFGVSEDLVVQISELEGRGSVEEPHTKLRKYFPETWIWDLVVVNSAGVAEVGVTVPDTITEWKAGAFCLSEDAGLGISSTASLRAFQPFFVELTMPYSVIRGEAFTLKATVLNYLPKCIRVSVQLEASPAFLAVPVEKEQAPHCICANGRQTVSWAVTPKSLGNVNFTVSAEALESQELCGTEVPSVPEHGRKDTVIKPLLVEPEGLEKETTFNSLLCPSGGEVSEELSLKLPPNVVEESARASVSVLGDILGSAMQNTQNLLQMPYGCGEQNMVLFAPNIYVLDYLNETQQLTPEIKSKAIGYLNTGYQRQLNYKHYDGSYSTFGERYGRNQGNTWLTAFVLKTFAQARAYIFIDEAHITQALIWLSQRQKDNGCFRSSGSLLNNAIKGGVEDEVTLSAYITIALLEIPLTVTHPVVRNALFCLESAWKTAQEGDHGSHVYTKALLAYAFALAGNQDKRKEVLKSLNEEAVKKDNSVHWERPQKPKAPVGHFYEPQAPSAEVEMTSYVLLAYLTAQPAPTSEDLTSATNIVKWITKQQNAQGGFSSTQDTVVALHALSKYGAATFTRTGKAAQVTIQSSGTFSSKFQVDNNNRLLLQQVSLPELPGEYSMKVTGEGCVYLQTSLKYNILPEKEEFPFALGVQTLPQTCDEPKAHTSFQISLSVSYTGSRSASNMAIVDVKMVSGFIPLKPTVKMLERSNHVSRTEVSSNHVLIYLDKVSNQTLSLFFTVLQDVPVRDLKPAIVKVYDYYETDEFAIAEYNAPCSKDLGNADYKDDDDKGASHHHHHH

Key:
Assay in all cases: cell-based or functional assay
Elastase = target: Elastase
bovine trypsin = bovine trypsin (bovine, UniProt P00760 24-246)
chymotrypsin = target: chymotrypsin
ADAMTS4 = target: T1, ADAMTS4
ADAMTS5 = target: T2, ADAMTS5
MMP1 = target: T3, MMP1
MMP8 = MMP8 (human, UniProt P22894 101-467, limits assumed)
MMP13 = MMP13 (human, UniProt P45452 104-471, limits assumed)
MMP2 = target: T4, MMP2
MMP9 = MMP9 (human, UniProt P14780 107-707, limits assumed)
MMP3 = MMP3 (human, UniProt P08254 100-477, limits assumed)
MMP12 = MMP12 (human, UniProt P39900 106-470, limits assumed)
Cathepsin G = target: T5, Cathepsin G

Sequence of MMP12 (P39900 106-470 limits assumed): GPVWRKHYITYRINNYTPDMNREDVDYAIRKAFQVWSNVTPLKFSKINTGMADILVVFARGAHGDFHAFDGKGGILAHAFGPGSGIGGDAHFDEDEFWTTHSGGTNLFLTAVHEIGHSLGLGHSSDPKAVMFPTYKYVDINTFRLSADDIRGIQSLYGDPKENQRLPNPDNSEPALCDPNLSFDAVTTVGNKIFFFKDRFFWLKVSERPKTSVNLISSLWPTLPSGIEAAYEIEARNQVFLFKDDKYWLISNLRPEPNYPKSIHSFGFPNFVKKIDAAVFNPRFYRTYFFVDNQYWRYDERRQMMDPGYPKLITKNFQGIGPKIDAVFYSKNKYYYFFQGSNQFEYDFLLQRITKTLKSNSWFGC
Sequence of MMP8 (P22894 101-467 limits assumed): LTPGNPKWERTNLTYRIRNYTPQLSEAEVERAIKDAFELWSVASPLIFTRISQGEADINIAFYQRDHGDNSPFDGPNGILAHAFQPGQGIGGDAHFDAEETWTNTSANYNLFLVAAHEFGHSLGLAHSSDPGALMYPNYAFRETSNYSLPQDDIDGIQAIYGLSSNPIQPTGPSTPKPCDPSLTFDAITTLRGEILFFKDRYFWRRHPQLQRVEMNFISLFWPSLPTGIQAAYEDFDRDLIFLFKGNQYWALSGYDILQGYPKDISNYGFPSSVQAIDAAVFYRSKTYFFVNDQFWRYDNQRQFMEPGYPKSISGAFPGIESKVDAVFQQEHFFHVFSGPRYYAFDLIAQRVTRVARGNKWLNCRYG
Sequence of MMP3 (P08254 100-477 limits assumed): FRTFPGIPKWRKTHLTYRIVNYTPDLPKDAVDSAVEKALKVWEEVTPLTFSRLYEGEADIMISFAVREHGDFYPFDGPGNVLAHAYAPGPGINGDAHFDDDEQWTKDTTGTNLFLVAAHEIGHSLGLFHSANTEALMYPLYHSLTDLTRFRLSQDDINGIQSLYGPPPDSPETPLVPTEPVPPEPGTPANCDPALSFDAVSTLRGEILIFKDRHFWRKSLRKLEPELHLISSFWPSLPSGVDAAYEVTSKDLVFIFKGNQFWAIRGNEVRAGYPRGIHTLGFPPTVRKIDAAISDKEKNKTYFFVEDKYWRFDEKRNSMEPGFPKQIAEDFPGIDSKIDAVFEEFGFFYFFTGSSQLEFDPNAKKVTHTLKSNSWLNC
Sequence of MMP9 (P14780 107-707 limits assumed): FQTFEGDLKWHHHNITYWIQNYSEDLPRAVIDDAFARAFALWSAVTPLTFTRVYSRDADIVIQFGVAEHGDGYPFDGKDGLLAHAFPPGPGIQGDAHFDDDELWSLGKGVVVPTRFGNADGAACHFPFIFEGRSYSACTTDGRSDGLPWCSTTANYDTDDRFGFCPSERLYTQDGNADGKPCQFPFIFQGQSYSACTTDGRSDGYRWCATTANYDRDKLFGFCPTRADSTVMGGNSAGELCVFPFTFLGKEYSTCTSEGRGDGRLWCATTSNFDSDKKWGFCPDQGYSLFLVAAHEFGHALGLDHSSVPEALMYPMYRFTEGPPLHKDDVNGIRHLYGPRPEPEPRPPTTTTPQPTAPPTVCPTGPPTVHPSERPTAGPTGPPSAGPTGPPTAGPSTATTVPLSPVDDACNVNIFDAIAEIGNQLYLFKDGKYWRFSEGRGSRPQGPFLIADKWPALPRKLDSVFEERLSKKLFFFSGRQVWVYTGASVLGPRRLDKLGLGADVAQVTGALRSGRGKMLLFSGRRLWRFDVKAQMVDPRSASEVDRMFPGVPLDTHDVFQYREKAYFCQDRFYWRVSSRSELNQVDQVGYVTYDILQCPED
Sequence of bovine trypsin (P00760 24-246): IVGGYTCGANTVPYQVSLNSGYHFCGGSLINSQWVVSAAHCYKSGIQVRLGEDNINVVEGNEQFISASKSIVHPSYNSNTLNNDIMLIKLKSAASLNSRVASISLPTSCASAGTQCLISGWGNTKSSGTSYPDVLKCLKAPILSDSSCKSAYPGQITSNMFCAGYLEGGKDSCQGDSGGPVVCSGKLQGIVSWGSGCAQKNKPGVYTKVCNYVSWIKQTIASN

Binder | Protease Inhibition (% of WT) (Elastase) | Protease Inhibition (% of WT) (bovine trypsin) | Protease Inhibition (% of WT) (chymotrypsin) | Protease Inhibition (% of WT) (ADAMTS4) | Protease Inhibition (% of WT) (ADAMTS5) | Protease Inhibition (% of WT) (MMP1) | Protease Inhibition (% of WT) (MMP8) | Protease Inhibition (% of WT) (MMP13) | Protease Inhibition (% of WT) (MMP2) | Protease Inhibition (% of WT) (MMP9) | Protease Inhibition (% of WT) (MMP3) | Protease Inhibition (% of WT) (MMP12) | Protease Inhibition (% of WT) (Cathepsin G)
B1 | 550 % of WT | 100 % of WT | 80 % of WT | 70 % of WT | 350 % of WT | 50 % of WT | 110 % of WT | 700 % of WT | 110 % of WT | 100 % of WT | 110 % of WT | 100 % of WT | 
B2 | 105 % of WT | 86 % of WT | 50 % of WT | 115 % of WT | 480 % of WT | 379 % of WT | 163 % of WT | 117 % of WT | 61 % of WT | 500 % of WT | 130 % of WT | 132 % of WT | 311 % of WT

Source: patent US20230250154A1 (CYTONICS, published 2023)
